In PMC8988209, “AAV‐mediated delivery of an anti‐BACE1 VHH alleviates pathology in an Alzheimer's disease model” (EMBO Molecular Medicine, 2022):

Experiments:
[1] = biological target: purified human BACE1 ectodomain (human) (UniProt P56817); experiment: SPR; BIAcore; 2,500 RU purified BACE1 ectodomain amine-coupled to a CM5 chip; VHHs injected at 0–500 nM, 30 μl/min, 25°C; HBS buffer (10 mM Hepes (pH 7.5), 150 mM NaCl, 3.5 mM EDTA, 0.005% Tween-20); table gives pH 7.0
[2] = biological target: purified human BACE1 ectodomain (human) (UniProt P56817); experiment: SPR; BIAcore; 2,500 RU purified BACE1 ectodomain amine-coupled to a CM5 chip; VHHs injected at 0–500 nM, 25°C; citrate buffer with 150 mM NaCl, 3.5 mM EDTA, 0.005% Tween-20 at pH 4.5
[3] = biological target: human BACE1 (amino acids 1–460) fused to the constant region of human IgG1 (hBACE1:Fc), wild type (Homo sapiens, UniProt P56817); experiment: cell-based or functional assay
Chain of human BACE1 (amino acids 1–460) fused to the constant region of human IgG1 (hBACE1:Fc), wild type (P56817 22-460): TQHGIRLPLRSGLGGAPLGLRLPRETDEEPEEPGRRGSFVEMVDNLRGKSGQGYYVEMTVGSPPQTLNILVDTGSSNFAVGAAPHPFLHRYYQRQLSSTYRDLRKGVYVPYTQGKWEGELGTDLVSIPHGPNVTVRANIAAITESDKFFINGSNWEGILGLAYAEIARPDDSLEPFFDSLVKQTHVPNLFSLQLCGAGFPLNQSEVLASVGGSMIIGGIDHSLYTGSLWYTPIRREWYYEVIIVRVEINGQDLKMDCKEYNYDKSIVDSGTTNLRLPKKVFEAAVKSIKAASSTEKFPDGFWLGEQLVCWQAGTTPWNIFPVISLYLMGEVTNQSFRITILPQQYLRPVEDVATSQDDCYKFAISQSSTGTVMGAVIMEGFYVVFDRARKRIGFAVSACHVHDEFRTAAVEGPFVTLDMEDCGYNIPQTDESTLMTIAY

[4] = biological target: T1, biotinylated mouse BACE1 (Mus musculus, UniProt P56818, biotin); experiment: cell-based or functional assay
T1 sequence (P56818 46-501): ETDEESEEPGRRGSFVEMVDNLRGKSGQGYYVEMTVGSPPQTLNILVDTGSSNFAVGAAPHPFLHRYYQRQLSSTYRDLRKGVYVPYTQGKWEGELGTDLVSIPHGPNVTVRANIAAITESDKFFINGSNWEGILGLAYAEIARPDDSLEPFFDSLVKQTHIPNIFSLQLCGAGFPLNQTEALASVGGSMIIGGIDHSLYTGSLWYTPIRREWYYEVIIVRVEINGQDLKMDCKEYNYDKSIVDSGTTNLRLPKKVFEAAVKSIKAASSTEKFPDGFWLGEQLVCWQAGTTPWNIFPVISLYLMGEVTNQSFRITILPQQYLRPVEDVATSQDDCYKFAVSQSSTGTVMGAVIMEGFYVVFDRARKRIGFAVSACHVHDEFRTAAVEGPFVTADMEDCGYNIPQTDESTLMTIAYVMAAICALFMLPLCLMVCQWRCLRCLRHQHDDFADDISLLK

[5] = biological target: T1, biotinylated mouse BACE1; experiment: BLI; OctetRED96; biotinylated human or mouse BACE1 immobilised at 1 μg/ml on streptavidin biosensors; serial dilutions of VHH-B9 (table: Conc. 100 nM); Kinetic Buffer, 25°C, 1,000 rpm; 1:1 fitting model; conditions: both partners purified
[6] = biological target: T2, biotinylated human BACE1 (Homo sapiens, UniProt P56817, biotin); experiment: as above; conditions: both partners purified
T2 construct: human BACE1, biotinylated and immobilised on streptavidin biosensors; Probably an ectodomain preparation; also called hBACE1; biotinylated BACE1
T2 sequence (P56817 46-501): as the sequence (P56818 46-501) above, with S6P, I162V, I165L, T180S, A182V, V340I, A393L, H443Q counted along it

[7] = biological target: T3, mouse BACE2 (Mus musculus, UniProt Q9JL18); experiment: as above; conditions: both partners purified
T3 construct: mouse BACE2; also called mBACE2
T3 sequence (Q9JL18 20-514): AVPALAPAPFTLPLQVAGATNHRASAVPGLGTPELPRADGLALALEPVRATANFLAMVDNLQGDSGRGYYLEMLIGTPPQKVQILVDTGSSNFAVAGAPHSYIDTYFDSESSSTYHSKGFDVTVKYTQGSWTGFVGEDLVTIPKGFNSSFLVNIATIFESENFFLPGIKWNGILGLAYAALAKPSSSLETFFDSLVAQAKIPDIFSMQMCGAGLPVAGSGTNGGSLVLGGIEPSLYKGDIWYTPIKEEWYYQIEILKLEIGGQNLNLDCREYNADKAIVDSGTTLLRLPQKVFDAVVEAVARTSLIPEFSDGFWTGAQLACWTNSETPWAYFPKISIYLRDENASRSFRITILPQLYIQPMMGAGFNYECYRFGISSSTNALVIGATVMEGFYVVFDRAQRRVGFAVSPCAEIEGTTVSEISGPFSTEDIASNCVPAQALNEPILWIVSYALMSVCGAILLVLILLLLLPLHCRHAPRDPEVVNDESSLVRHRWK

[8] = biological target: human BACE1 (amino acids 1–460) fused to the constant region of human IgG1 (hBACE1:Fc), wild type (human) (UniProt P56817)
Chain of human BACE1 (amino acids 1–460) fused to the constant region of human IgG1 (hBACE1:Fc), wild type (human) (P56817 22-460): as the sequence (P56817 22-460) above

Chain of purified human BACE1 ectodomain (human) (P56817 22-457): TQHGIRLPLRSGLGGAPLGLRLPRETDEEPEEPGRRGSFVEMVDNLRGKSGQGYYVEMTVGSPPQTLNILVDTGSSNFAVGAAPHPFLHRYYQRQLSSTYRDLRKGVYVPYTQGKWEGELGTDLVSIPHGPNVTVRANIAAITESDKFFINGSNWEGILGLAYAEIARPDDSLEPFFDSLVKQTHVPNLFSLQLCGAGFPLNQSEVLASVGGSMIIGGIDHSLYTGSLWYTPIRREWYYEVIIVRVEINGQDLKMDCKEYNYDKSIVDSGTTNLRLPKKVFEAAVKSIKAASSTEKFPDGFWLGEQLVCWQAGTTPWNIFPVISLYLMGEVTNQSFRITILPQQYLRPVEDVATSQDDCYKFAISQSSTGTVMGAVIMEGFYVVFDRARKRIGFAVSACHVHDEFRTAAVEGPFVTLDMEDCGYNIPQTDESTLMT

| Binder | Kd [1] [nM] | koff [1] [s⁻¹] | kon [1] [M⁻¹ s⁻¹] | Kd [2] [nM] | koff [2] [s⁻¹] | kon [2] [M⁻¹ s⁻¹] | EC50 of inhibition of hBACE1:Fc in the in vitro APP cleavage assay (MBP-C125sw substrate, cleavage product by ELISA) [3] [nM] | EC50 of lowering Aβ1-40 (ELISA of conditioned medium) in primary mouse neurons expressing human APP695, VHH-B9 from 10 µM to 0.7 nM [4] [nM] | Kd [5] [nM] | koff [5] [s⁻¹] | kon [5] [M⁻¹ s⁻¹] | Kd [6] [nM] | koff [6] [s⁻¹] | kon [6] [M⁻¹ s⁻¹] | binding result [7] | EC50 of inhibition of hBACE1:Fc in the in vitro APP cleavage assay (MBP-C125sw substrate, cleavage product by ELISA) [8] [nM] |
| --- | --- | --- | --- | --- | --- | --- | --- | --- | --- | --- | --- | --- | --- | --- | --- | --- |
| VHH‐B9 (VHH, Recombinant form used in SPR, BLI, dot blot (detected by anti-His) and the cleavage assays; source: E. coli WK6 (pHEN6), periplasmic extract, purified (Ni-NTA, Superdex-75); not shown: His6, C-terminal, kept) VHH: DVQLQESGGGSVQAGGSLRLSCAASEYTYGYCSMGWYRQAPGKERELVSTITSDGSTSYVDSVKGRFTISQDNAKNTVYLQMNSLKPEDTAKYYCYTKTCANKLGAKFISWGQGTQVTVSS | 3.7 | 0.00098 | 267000 | 1.9 | 0.00013 | 662000 | 99.2 | 85.4 | 3.2 | 0.00072 | 224000 | 2.9 | 0.000443 | 153000 | no binding (tested: 100 nM) |  |
| VHH‐10C4 (VHH) VHH: QVQLQESGGGSVQAGGFLRLSCAASGYTYSTCSMAWYRQAPGKERELVSSIRNDGSTAYADSVKGRFTISQDNAKNTVYLQMNSLKPEDTAMYYCNIRIGVGPGGTCSIYAPYWGEGTQVTVSS | 74.7 | 0.00792 | 106000 | 27.7 | 0.0125 | 451000 |  |  |  |  |  |  |  |  |  | 112 |
| VHH‐4A2 (VHH) VHH: QVQLQESGGGLVQPGGSLRLSCAASGFTFETQYMTWVRQAPGKGPEYVSSINSGGTIKYYANSSVKGRFTISRDNAKNTLYLQMNNLRPEDTAIYYCQLGQWAGVGAASSRGQGTQVTVSS | 48.2 | 0.0231 | 479000 | 21.2 | 0.00841 | 397000 |  |  |  |  |  |  |  |  |  | 789 |
